Source: patent US20190010203A1 (ADEPTHERA, published 2019)
Non-standard residues stand in square brackets, D forms with d. No end group written: not given here. *: point of attachment. Palmitoyl = CCCCCCCCCCCCCCCC(=O)*; AEEEA = NCCOCCOCCOCC(=O)O

B1: SEQ ID NO: 73 (peptide)
peptide: KGCRFGTCTVQKLAHQIYQFTDKDKDNVAPRSKISPQGY
modifications: N-terminal palmitoyl (Pal); palmitoyl on Lys 1 side chain, K(Pal); C-terminal amide
B2: SEQ ID NO: 38 (peptide)
peptide: Palmitoyl-KTKKTLRTGCRFGTCTVQKLAHQIYQFTDKDKDNSAPVDPSSPHSY-NH2
modifications: not fully specified; printed as Pal-KTKKTLRTGCRFGTCTVQKLAHQIYQFTDKDKDNSAPVDPSSPHSY-NH2; ends and bridges not checked
B3: SEQ ID NO: 40 (peptide)
peptide: Palmitoyl-KTKKTLRTGCRFGTCTVQKLAHQIYQFTDKDKDNVAPVDPSSPHSY-NH2
modifications: not fully specified; printed as Pal-KTKKTLRTGCRFGTCTVQKLAHQIYQFTDKDKDNVAPVDPSSPHSY-NH2; ends and bridges not checked

target: T1, CLR/RAMP1 receptor (UniProt Q16602 23-461; O60894 27-148, limits assumed); assay: cell-based or functional assay
T1 sequence (Q16602 23-461 limits assumed, chain 1 of 2): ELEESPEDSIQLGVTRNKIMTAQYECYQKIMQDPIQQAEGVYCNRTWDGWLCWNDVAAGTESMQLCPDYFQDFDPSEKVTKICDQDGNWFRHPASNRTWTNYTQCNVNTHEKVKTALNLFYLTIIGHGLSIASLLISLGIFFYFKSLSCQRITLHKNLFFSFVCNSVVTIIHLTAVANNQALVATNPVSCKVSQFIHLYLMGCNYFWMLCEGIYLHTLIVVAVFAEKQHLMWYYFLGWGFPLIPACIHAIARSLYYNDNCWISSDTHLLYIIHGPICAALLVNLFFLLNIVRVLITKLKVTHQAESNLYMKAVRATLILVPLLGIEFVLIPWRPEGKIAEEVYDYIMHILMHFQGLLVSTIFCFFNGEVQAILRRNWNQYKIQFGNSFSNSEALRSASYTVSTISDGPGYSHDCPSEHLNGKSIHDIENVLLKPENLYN
T1 sequence (O60894 27-148 limits assumed, chain 2 of 2): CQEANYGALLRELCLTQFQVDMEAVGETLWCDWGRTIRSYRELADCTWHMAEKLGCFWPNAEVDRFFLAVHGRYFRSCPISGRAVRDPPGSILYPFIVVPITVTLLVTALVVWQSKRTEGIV

Binder	IC50 (nM), CGRP-stimulated CLR/RAMP1 cAMP assay [nM]
Palmitoyl-TVQKLAHQIYQFTDKDKDNSAPVDPSSPHSY-NH2 [SEQ ID NO: 77]	9.9
Palmitoyl-KVQKLAHQIYQFTDKSAPVDPSSPHSY-NH2 [SEQ ID NO: 125]	7
Ac-TVQKLAHQIYQFTDKDKDNSAPVDPSSPHSY-NH2 [SEQ ID NO: 76]	1120

target: T2, CLR/RAMP2 receptor (UniProt Q16602 23-461; O60895 43-175, limits assumed); assay: cell-based or functional assay
T2 sequence (Q16602 23-461 limits assumed, chain 1 of 2): as the sequence (Q16602 23-461 limits assumed, chain 1 of 2) above
T2 sequence (O60895 43-175 limits assumed, chain 2 of 2): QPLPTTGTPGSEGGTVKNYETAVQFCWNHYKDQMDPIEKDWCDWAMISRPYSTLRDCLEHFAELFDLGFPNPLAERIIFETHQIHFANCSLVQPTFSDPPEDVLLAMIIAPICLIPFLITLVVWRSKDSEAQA

Binder	IC50 (nM), ADM-stimulated CLR/RAMP2 arrestin assay [nM]
Palmitoyl-TVQKLAHQIYQFTDKDKDNSAPVDPSSPHSY-NH2 [SEQ ID NO: 77]	47
Palmitoyl-KVQKLAHQIYQFTDKSAPVDPSSPHSY-NH2 [SEQ ID NO: 125]	7.1
Ac-TVQKLAHQIYQFTDKDKDNSAPVDPSSPHSY-NH2 [SEQ ID NO: 76]	289

target: T1, CLR/RAMP1 receptor; assay: cell-based or functional assay; remark: another data set of the same source

Binder	Max Activity % of positive control, CLR/RAMP1 cAMP assay	EC50 (nM), CLR/RAMP1 cAMP assay [nM]
miniPEG-K(Palmitoyl)GCRFGTCTVQKLAHQIYQFTDKDKDNVAPVDPSSPHSY-NH2 (cysteine pairing not given here) [SEQ ID NO: 50]	65 % of positive control	
Ac-FGCRFGTCTVQKLAHQIYQFTDKDKDNVAPRSKISPQGY-NH2 (cysteine pairing not given here) [human ADM, SEQ ID NO: 53]	69 % of positive control	
Ac-VGCRFGTCTVQKLAHQIYQFTDKDKDNSAPVDPSSPHSY-NH2 (ends and bridges not checked) [SEQ ID NO: 56]		224
Ac-VGCRFGTCTVQKLAHQIYQFTPAGRQDSAPVDPSSPHSY-NH2 (ends and bridges not checked) [SEQ ID NO: 57]		909
Ac-KGCRFGTCTVQKLAHQIYQFTDKDKDNSAPVDPSSPHSY-NH2 (ends and bridges not checked) [SEQ ID NO: 59]		31
Ac-KGCRFGTCTVQKLAHQIYQFTDKDKDNVAPVDPSSPHSY-NH2 (ends and bridges not checked) [SEQ ID NO: 60]		16
[AEEEA]K(Palmitoyl)GCRFGTCTVQKLAHLWQLMGPAGRQDSAPVDPSSPHSY-NH2 (ends and bridges not checked) [SEQ ID NO: 62]	2 % of positive control	
Ac-K(Palmitoyl)GCRFGTCTVQKLAHQIYQFTDKDKDNVAPRSKSSPHSY-NH2 (ends and bridges not checked) [SEQ ID NO: 65]		234
Ac-KGCRFGTCTVQKLAHQIYQFTDKDSAPVDPSSPHSY-NH2 (ends and bridges not checked) [SEQ ID NO: 93]		771
Palmitoyl-KGCRFGTCTVQKLAHQIYQFTDKDKDNSAPVDPSSPHSY-NH2 (ends and bridges not checked) [SEQ ID NO: 30]		0.4
miniPEG-K(Palmitoyl)TKKTLRTGCRFGTCTVQKLAHQIYQFTDKDKDNVAPRSKISPQGY-NH2 (ends and bridges not checked) [SEQ ID NO: 70]	69 % of positive control	
miniPEG-K(Palmitoyl)GCRFGTCTVQKLAHQIYQFTDKDKDNVDPSSPHSY-NH2 (cysteine pairing not given here) [SEQ ID NO: 94]	67 % of positive control	
Palmitoyl-KGCRFGTCTVQKLAHQIYQFTPAGRQDSAPVDPSSPHSY-NH2 (ends and bridges not checked) [SEQ ID NO: 31]		0.8
Palmitoyl-KGCRFGTCTVQKLAHQIYQFTDKDAPVDPSSPHSY-NH2 (ends and bridges not checked) [SEQ ID NO: 110]		43
B1		34
Ac-K(Palmitoyl)GCRFGTCTVQKLAHQIYQFTPAGRQDSAPVDPSSPHSY-NH2 (ends and bridges not checked) [SEQ ID NO: 33]		0.3
Palmitoyl-KGCRFGTCTVQKLAHQIYQFTDKDKDNVAPVDPSSPHSY-NH2 (ends and bridges not checked) [SEQ ID NO: 34]		0.2
Palmitoyl-KGCRFGTCTVQKLAHQIYQFTDKDKQDSAPVDPSSPHSY-NH2 (ends and bridges not checked) [SEQ ID NO: 35]		0.8
Palmitoyl-KGCRFGTCTVQKLAHQIYQFTDKGRQDSAPVDPSSPHSY-NH2 (ends and bridges not checked) [SEQ ID NO: 36]		0.6
B2		0.5
Ac-TK(Palmitoyl)KTLRTGCRFGTCTVQKLAHQIYQFTDKDKDNSAPVDPSSPHSY-NH2 (ends and bridges not checked) [SEQ ID NO: 39]		0.2
B3		2
Ac-TK(Palmitoyl)KTLRTGCRFGTCTVQKLAHQIYQFTDKDKDNVAPVDPSSPHSY-NH2 (ends and bridges not checked) [SEQ ID NO: 41]		0.4
[AEEEA]K(Palmitoyl)CRFGTCTVQKLAHQIYQFTDKDKDNSAPVDPSSPHSY-NH2 (ends and bridges not checked) [SEQ ID NO: 43]	39 % of positive control	0.5
Palmitoyl-KCRFGTCTVQKLAHQIYQFTDKDKDNSAPVDPSSPHSY-NH2 (ends and bridges not checked) [SEQ ID NO: 44]		0.1
Palmitoyl-GCRFGTCTVQKLAHQIYQFTDKDKDNSAPVDPSSPHSY-NH2 (ends and bridges not checked) [SEQ ID NO: 45]		0.1
miniPEG-K(Palmitoyl)GCRFGTCTVQKLAHQIYQFTDKDKSAPVDPSSPHSY-NH2 (ends and bridges not checked) [SEQ ID NO: 47]	85 % of positive control	

target: T2, CLR/RAMP2 receptor; assay: cell-based or functional assay; remark: another data set of the same source

Binder	Max Activity % of positive control, CLR/RAMP2 arrestin assay	EC50 (nM), CLR/RAMP2 arrestin assay [nM]
miniPEG-K(Palmitoyl)GCRFGTCTVQKLAHQIYQFTDKDKDNVAPVDPSSPHSY-NH2 (cysteine pairing not given here) [SEQ ID NO: 50]	87 % of positive control	
[AEEEA]K(Palmitoyl)GCRFGTCTVQKLAHQIYQFTDKDKQDSAPVDPSSPHSY-NH2 (ends and bridges not checked) [SEQ ID NO: 51]		0.3
Ac-FGCRFGTCTVQKLAHQIYQFTDKDKDNVAPRSKISPQGY-NH2 (cysteine pairing not given here) [human ADM, SEQ ID NO: 53]	102 % of positive control	
Ac-VGCRFGTCTVQKLAHQIYQFTDKDKDNSAPVDPSSPHSY-NH2 (ends and bridges not checked) [SEQ ID NO: 56]		17
Ac-VGCRFGTCTVQKLAHQIYQFTPAGRQDSAPVDPSSPHSY-NH2 (ends and bridges not checked) [SEQ ID NO: 57]		149
Ac-KGCRFGTCTVQKLAHQIYQFTDKDKDNSAPVDPSSPHSY-NH2 (ends and bridges not checked) [SEQ ID NO: 59]		18
Ac-KGCRFGTCTVQKLAHQIYQFTDKDKDNVAPVDPSSPHSY-NH2 (ends and bridges not checked) [SEQ ID NO: 60]		3
Ac-KGCRFGTCTVQKLAHQIYQFTDKDSAPVDPSSPHSY-NH2 (ends and bridges not checked) [SEQ ID NO: 93]		17
Palmitoyl-KGCRFGTCTVQKLAHQIYQFTDKDKDNSAPVDPSSPHSY-NH2 (ends and bridges not checked) [SEQ ID NO: 30]		0.6
miniPEG-K(Palmitoyl)TKKTLRTGCRFGTCTVQKLAHQIYQFTDKDKDNVAPRSKISPQGY-NH2 (ends and bridges not checked) [SEQ ID NO: 70]	68 % of positive control	
miniPEG-K(Palmitoyl)GCRFGTCTVQKLAHQIYQFTDKDKDNVDPSSPHSY-NH2 (cysteine pairing not given here) [SEQ ID NO: 94]	82 % of positive control	
Palmitoyl-KGCRFGTCTVQKLAHQIYQFTPAGRQDSAPVDPSSPHSY-NH2 (ends and bridges not checked) [SEQ ID NO: 31]		0.9
Palmitoyl-KGCRFGTCTVQKLAHQIYQFTDKDAPVDPSSPHSY-NH2 (ends and bridges not checked) [SEQ ID NO: 110]		6.4
B1		49
Ac-K(Palmitoyl)GCRFGTCTVQKLAHQIYQFTPAGRQDSAPVDPSSPHSY-NH2 (ends and bridges not checked) [SEQ ID NO: 33]		0.4
Palmitoyl-KGCRFGTCTVQKLAHQIYQFTDKDKDNVAPVDPSSPHSY-NH2 (ends and bridges not checked) [SEQ ID NO: 34]		0.7
Palmitoyl-KGCRFGTCTVQKLAHQIYQFTDKDKQDSAPVDPSSPHSY-NH2 (ends and bridges not checked) [SEQ ID NO: 35]		1
Palmitoyl-KGCRFGTCTVQKLAHQIYQFTDKGRQDSAPVDPSSPHSY-NH2 (ends and bridges not checked) [SEQ ID NO: 36]		0.9
B2		0.7
Ac-TK(Palmitoyl)KTLRTGCRFGTCTVQKLAHQIYQFTDKDKDNSAPVDPSSPHSY-NH2 (ends and bridges not checked) [SEQ ID NO: 39]		0.5
B3		1
Ac-TK(Palmitoyl)KTLRTGCRFGTCTVQKLAHQIYQFTDKDKDNVAPVDPSSPHSY-NH2 (ends and bridges not checked) [SEQ ID NO: 41]		0.9
miniPEG-TK(Palmitoyl)KTLRTGCRFGTCTVQKLAHQIYQFTDKDKDNVAPVDPSSPHSY-NH2 (cysteine pairing not given here) [SEQ ID NO: 42]		0.2
[AEEEA]K(Palmitoyl)CRFGTCTVQKLAHQIYQFTDKDKDNSAPVDPSSPHSY-NH2 (ends and bridges not checked) [SEQ ID NO: 43]	30 % of positive control	0.2
Palmitoyl-KCRFGTCTVQKLAHQIYQFTDKDKDNSAPVDPSSPHSY-NH2 (ends and bridges not checked) [SEQ ID NO: 44]		0.2
Palmitoyl-GCRFGTCTVQKLAHQIYQFTDKDKDNSAPVDPSSPHSY-NH2 (ends and bridges not checked) [SEQ ID NO: 45]		0.3
[AEEEA]K(Palmitoyl)GCRFGTCTVQKLAHQIYQFTDKDKDSAPVDPSSPHSY-NH2 (ends and bridges not checked) [SEQ ID NO: 46]	104 % of positive control	0.5
miniPEG-K(Palmitoyl)GCRFGTCTVQKLAHQIYQFTDKDKSAPVDPSSPHSY-NH2 (ends and bridges not checked) [SEQ ID NO: 47]	64 % of positive control	0.4
